Test system: MS2 coat protein
Assay: apparent KD of MS2 coat protein; designed switch direction (-1 OFF switch, 1 ON switch): -1; higher = weaker reporter binding
Procedure, shortened: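 The apparent KD reported per design is the median over clusters of curve fits to normalised cluster fluorescence. The RNA switches were transcribed on Illumina chips by stalled E. coli RNA polymerase. SNAP-549-labelled MS2 coat protein was titrated from 0.7 or 1.5 nM, doubling up to 3 µM, in Tris-HCl pH 7.5 buffer containing KCl, MgCl2, BSA, DTT, tRNA and Tween-20, with no input, 200 uM small-molecule ligand, or an oligonucleotide input.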

[1] = Eterna round: R95, input ligand: microRNA oligo, concentration not stated
[2] = input ligand: microRNA oligo, concentration not stated
[3] = Eterna round: R95, input ligand: FMN 200 uM
[4] = Eterna round: R95, input ligand: none

Sequence | apparent KD of MS2 coat protein (input ligand: FMN 200 uM) | apparent KD of MS2 coat protein (input ligand: none) | other results
AGUGUGUGGCAGGAUAUGCGAUUUGUAAGUAUUGCAGAAGGGUCUACAUGAGGAUCACCCAUGUGUGCGGUUGA [Ex6 #25] (Eterna round: R97, puzzle: Exclusion 6) | 947 nM | 469 nM | –
UUUAGUUCAGGAUAUGUAGAAAUUAACAUGAGGAUCACCCAUGUCGAUCCUGAAUUAACUACAGAAGGGAACAUUU [Mod of Brourd 6 - Jieux - Exclusion 5] (Eterna round: R97, puzzle: Exclusion 5) | 50 nM | 14.2 nM | –
CUUUUGUGAGGAUAUCAGUAUUAAAAAAAUAAAAUUACUACUGAGAAGGCACAUGAGGAUCACCCAUGUUCCUC [salish99_ex4_r3_032] (puzzle: Exclusion 4) | – | – | apparent KD of MS2 coat protein [1]: 34.4 nM
AGAAGACAUGAGGAUCACCCAUGUAAGGAUAUUGGAGGUUAGGGAUGCUGGAGUUGGACAAGAAGGUACAGGUG [JR_Exclu1_Sub091] (puzzle: Exclusion 1) | – | – | apparent KD of MS2 coat protein [1]: 46.9 nM
ACAAGCUAAAUCAUAUCUUACAUGAGGAUCACCCAUGUUUUUGCAAUUAUGUUUGGGCUCUUUUGUGCUCGUCUUAU [JR_STOV1_Sub050] (Eterna round: R97, puzzle: Sensor, turn-off variant 1) | 16.1 nM | 17.6 nM | –
UUUCAGCUAGGAUAUGCCCUGAUGCACAUGAGGAUCACCCAUGUCGGCUUGUGUAUGAGCGCAGAAGGAGCGAAAA [EX5 C.17] (Eterna round: R97, puzzle: Exclusion 5) | 783 nM | 268 nM | –
UUGUACCGGUGAGGAUAUUUUUAAUAGAGCUUUAUGAUAUACAUGAGGAUCACCCAUGUUACGUUGAAGAAGGCAUCGGAUUAU [JL JR Sub091 mod 5] (Eterna round: R96, puzzle: Exclusion NG 2) | 19.3 nM | 19.8 nM | apparent KD of MS2 coat protein [2]: 15.5 nM
CUGUUUUUCGCAGGAUAUGCUCCUCCUUUAUUUGCAGAAGGGCGUUAAACAUGAGGAUCACCCAUGUAUGGUAAUGACUUUUUC [JR_ExcNG1_Sub064] (Eterna round: R96, puzzle: Exclusion NG 1) | – | – | apparent KD of MS2 coat protein [2]: 16.9 nM
ACUCGAGAAGGAUAUACAUGAGGAUCACCCAUGUUAACUCCCAAGGGCAUCUUAAAAGGUAGAAGGUCUUGAAA [Laonbeus] (puzzle: Exclusion 3) | – | – | apparent KD of MS2 coat protein [3]: 23.7 nM; apparent KD of MS2 coat protein [1]: 14 nM; apparent KD of MS2 coat protein [4]: 14.1 nM
ACUAAUUGAGGAUAUACAUUGAUUUACAUGAGGAUCACCCAUGUUCAAACAUGUAUUUAUGUAGAAGGCAGAAGAA [JR_Ex5_Sub065] (Eterna round: R97, puzzle: Exclusion 5) | 23 nM | 17.5 nM | –
CAGAGGAGACGGAGAUCCAACAUGAGGAUCACCCAUGUCUCAAAAGCUUUUUGCUUGUCUUAUCCUCCUCUCUUCAC [Mat - Sensor, turn-off var - Eli Mod - D59] (Eterna round: R97, puzzle: Sensor, turn-off variant 1) | 27.1 nM | 28.1 nM | –
UACAUGAGGAUCACCCAUGUCGGGUAAACGAAGGUUACUCAAGAGGAUAUAAAACCGAAAGGGUUUUAGAAGGCUUUUCCUCGA [Eternabot solution 27] (Eterna round: R96, puzzle: Exclusion NG 3) | 92.3 nM | 86.7 nM | apparent KD of MS2 coat protein [2]: 46 nM
GAAAAGGUAGGAUAUACGAAAACAAAGGGUAGAAACAAAACACAUGAGGAUCACCCAUGUAGAAGGACCAAAAG [salish99_ex2_r3_097] (puzzle: Exclusion 2) | – | – | apparent KD of MS2 coat protein [3]: 164 nM; apparent KD of MS2 coat protein [1]: 25.6 nM; apparent KD of MS2 coat protein [4]: 25.4 nM
AAAAGUCUUUAGGAUAUGUGCGAUUAAUAUCGUGCAGAAGGAAGGACAUGAGGAUCACCCAUGUUGAAGACAAC [Omei Ex6 A19] (Eterna round: R97, puzzle: Exclusion 6) | 51.1 nM | 22.1 nM | –
AUUUUAAUAUAGGAUAUCGAAAUUAUUAUUUAACGAGAAGGAUAAACAUGAGGAUCACCCAUGUGGUAUCAUGG [JMFs Solution 1] (puzzle: Exclusion 6) | – | – | apparent KD of MS2 coat protein [3]: 138 nM; apparent KD of MS2 coat protein [1]: 134 nM; apparent KD of MS2 coat protein [4]: 196 nM
ACAUGACAUGAGGAUCACCCAUGUUAGGAUAUCCCUCGUCCUGACUGAACGUCGGAAUGGAGAAGGAGCAUGGC [Eternabot (L2) Solution 88] (Eterna round: R97, puzzle: Exclusion 1) | 47.1 nM | 45.8 nM | –

Sequence | apparent KD of MS2 coat protein (input ligand: FMN 200 uM) | apparent KD of MS2 coat protein (input ligand: none) | other results
GCCGAAAAUGUGAGGAUAUACCUAUGGAAACAUAGGUAGAAGGCACAUGAGGAUCACCCAUGUCCAAUAACGGC [Mat - Exclusion 4 - Eli Mod - D25] (Eterna round: R97, puzzle: Brourd's mod of Exclusion 4) | 664 nM | 287 nM | –
AAGCCUCUUGUCAGGAUAUCUGUCGGUCCUCCAAGAGAGAAGGGACAUGAGGAUCACCCAUGUAAGCCCAGGGA [Qubere] (puzzle: Brourd's mod of Exclusion 4) | – | – | apparent KD of MS2 coat protein [1]: 13.5 nM
GGCAUGCAAGGAUAUACUUACAGUGAUGUUCGAAUAAGGCUACUUGAGGAUCACCCAAGUAGAAGGUGCAUGCC [Exclusion 2 (Mod JL EX2 4.74 Vienna UCT mod of Mamaed)] (Eterna round: R97, puzzle: Exclusion 2) | 203 nM | 26.8 nM | –
UCGCUCCGUGUAGGAUAUCGCCGUUCUAUUCGGCGAGAAGGACAUGAGGAUCACCCAUGUAUGUUAUUAUCACGCGUGGCGCAA [Design 58] (Eterna round: R96, puzzle: Exclusion NG 1) | – | – | apparent KD of MS2 coat protein [2]: 12.5 nM
ACAUGUCAUCGAGGAUAUUGUACACAUGAGGAUCACCCAUGUACUCGGUUGCUCUAGCAUGCGUUCGAGAAGGCGAUGUACAUU [Ex NG2 #98] (Eterna round: R96, puzzle: Exclusion NG 2) | 52 nM | 144 nM | apparent KD of MS2 coat protein [2]: 88.8 nM
AAUAACAUGUUGAUCAAAUACAUGAGGAUCACCCAUGUAUGCUUUUUGUUCGAUAAGAUCAACUAAUAAUAAUAAUA [StovNew/1-C] (Eterna round: R97, puzzle: Sensor, turn-off variant 1) | 12.2 nM | 12.6 nM | –
UAUAAAGGCUCAGGAUAUGGUGCGUCACAUGAGGAUCACCCAUGUAACGUGGCGGAACCUGCGCGCUAGAAGGGAGUAGCGAAA [Laensoqu] (Eterna round: R96, puzzle: Exclusion NG 2) | 8.44 nM | 10.7 nM | apparent KD of MS2 coat protein [2]: 8.05 nM
GUCCUGGACUAUCACAAGCACAUGAGGAUCACCCAUGUCAUGGGUAGAUCCCUAAAUAAAGAUACUGCUCGUCUUAU [Cac sensor turnoff var1 sub6] (Eterna round: R97, puzzle: Sensor, turn-off variant 1) | 160 nM | 300 nM | –
CCUCUGUUAGGAUAUCAAACACUAUCUGCUCCAGAGUUAAGUGAGAAGGGACAUGAGGAUCACCCAUGUAAAAU [Isreusraar] (puzzle: Exclusion 4) | – | – | apparent KD of MS2 coat protein [1]: 26.2 nM
CGGCUACGAUGAGGAUAUACGCACAUGAGGAUCACCCAUGUAAAUCACGGGUAAAGAUCGCCAUCGUAGAAGGCAUAAGGGCCC [Orsole] (Eterna round: R96, puzzle: Exclusion NG 2) | 80.3 nM | 80.2 nM | apparent KD of MS2 coat protein [2]: 49.6 nM
GACAUGAGGAUCACCCAUGUAACCAGGGCAAUUCUCGAAAUGGAGGAUAUGAAUCUUAAUUAGGUUCAGAAGGCCAGAAGGCUA [Eternabot solution 29] (Eterna round: R96, puzzle: Exclusion NG 3) | 784 nM | 206 nM | apparent KD of MS2 coat protein [2]: 194 nM
GCGCUGCGAGGAUAUACAUGAGGAUCACCCAUGUGUCGGCAGCCAUGGUAGUACAAAUGUAGAAGGCGCGUAAA [EX3 #51] (Eterna round: R97, puzzle: Exclusion 3) | 202 nM | 165 nM | –
AAAUACAAGUAAAGAUCCUACAUGAGGAUCACCCAUGUGCUCGUCUUGUAAAGUACUAUCACGAAAGUGAUAGUACA [Sensor 3, v1 - 22] (puzzle: Sensor v3, turn-off variant 1) | – | – | apparent KD of MS2 coat protein [3]: 45.7 nM; apparent KD of MS2 coat protein [1]: 31.5 nM; apparent KD of MS2 coat protein [4]: 51 nM
GUCUUCAUGACAUGAGGAUCACCCAUGUGUUAUAUUUUUACUAAGGAUAUAUUUUUAAUGUUGAGAUAGAAGGUAGUUUCGGUC [JR_ExcNG3_Sub092] (Eterna round: R96, puzzle: Exclusion NG 3) | – | – | apparent KD of MS2 coat protein [2]: 79.1 nM
AAAUUAGCAAGUAGAUCCGACAUGAGGAUCACCCAUGUAAUCUAAAAUUACGCUGCACGAAAGUGCGCUCGUCUUAG [Sensor-V1 #13] (Eterna round: R97, puzzle: Sensor, turn-off variant 1) | 362 nM | 405 nM | –
